Here are results for two substances from publication doi:10.1101/2023.03.30.534746.

Test [1] addresses IRE1α LD 312TLPL315-GSGS mutant (human) (UniProt O75460). Briefly: AUC.
Test [2] deals with IRE1α LD 352LNYL355-GSGS mutant (human) (UniProt O75460). Briefly: AUC.

Consider “IRE1α LD 312TLPL315-GSGS mutant (from UniProt O75460 24-443) (domain or fragment)”, for which, in test [1], the stoichiometry N turned out to be 2. Turning to “IRE1α LD 352LNYL355-GSGS mutant (from UniProt O75460 24-443) (domain or fragment)”, in test [2], the stoichiometry N was 2.

The stoichiometry N is a count of units in the complex or per binding partner.
